± gives the standard deviation of the averaged measurements.

This series has as its system VchCAST RNA-guided transposition machinery (E. coli BL21(DE3) host, lacZ target). The series can be described thus: relative integration efficiency (T-RL orientation) vs wild-type transposon end (log2 (normalized fold change)); transposon end mutated: right end (5 bp flank + 75 bp right end); higher = more efficient transposition. The procedure, abridged:
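In E. coli BL21(DE3), a T7-driven effector plasmid was paired with a pUC57 mini-transposon donor containing 1549 left-end or 1849 right-end barcoded transposon variants. Cells grew on plates with 0.1 mM IPTG at 37°C for 18 h. Relative integration efficiency was derived from Illumina reads of genomic integration junctions against input plasmids, as a log-transformed output/input barcode fold change normalised to reference barcodes.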
Regarding “ACATTTGTTGATACAACCATAAAATCATCATTACCCCCATAAATTGATAATTATCCCACCCCATTTAACTATAACGCTCTGATCATAGTCAGACCAACATTGCTACGACCCGTATTCGCACCGACAC”, the “relative integration efficiency (log2)” value was -3.69 ± 0.077.

With “ACATTTGTTGATACAACCATAAAATGATAATTACACCCATAAATTGATAATTATCACACCCATAAATTGATATTGCCTCTGATAACTTCGTATAGTATACATTATACGAAGTTATTCGCACCGACAC”, the “relative integration efficiency (log2)” value is -2.13 ± 0.21.

In the case of “ACATTTGTTGATACAACCATAAAATGATAATTACTCTGATCATAGTCAGACCAACATTGCTACGACCCCACCCATAAATTGATAATTATCAGTGGGTATTTAACTATAACGGTATTCGCACCGACAC”, the “relative integration efficiency (log2)” value was -2.938 ± 0.018.

Consider “ACATTGGTTGATACAACCATAAAATGATAATTACACCCATAAATTGATCATTATCACACCCAATTTAACTATAACGCTCTGATCATAGTCAGACCAACATTGCTACGACCCGTATTCGCACCGACAC”, for which the “relative integration efficiency (log2)” value was -7.17 ± 0.13.

For “ACATTTGTTGATACAACCATAAAATGATAATTACTGCCATAAATTGATAATTATCACACCCATAAATTGATATTGCCTCTGATCATAGTCAGACCAACATTGCTACGACCCGTATTCGCACCGACAC”, the “relative integration efficiency (log2)” value was -0.109 ± 0.19.

For “ACATTTGTTGATACAACCATTAAATGATAATTCCACCCATATATTGATAATTATCACACCCAATTTAACTATAACGCTCTGATCATAGTCAGACCAACATTGCTACGACCCGTATTCGCACCGACAC”, the “relative integration efficiency (log2)” value is -1.24 ± 0.15.

For the sequence “ACATTTGTTGATACAACCATAAAATGATAATTACACCCATAAATTGATAATTATCACACCCATAAATTGATATTGCCTCTGATCAACCATAAAATGATAATTACATAGTCAGACCAAGCACCGACAC”, the “relative integration efficiency (log2)” value came to 0.875 ± 0.21.

In the case of “ACATTTGTTGAGCACACCATAAAATGATAATTACACCCATAAATTGATAATTATCACACCCATAAATTGATATTGCCTCTGATCATAGTCAGACCAACATTGCTACGACCCGTATTCGCACCGACAC”, the “relative integration efficiency (log2)” value is -0.523 ± 0.031.

As for “ACATTTGTGGATACAACCATAAAATGATAATTACACCCATAAATTTATTATTATCACACCCAATTTAACTATAACGCTCTGATCATAGTCAGACCAACATTGCTACGACCCGTATTCGCACCGACAC”, the “relative integration efficiency (log2)” value was -2.14 ± 0.55.

For “ACATTTGTTGATACAACCATAAAGTGATATTTACAACCATAAAGTGATATTTATCACACCCATAAATTGATAATTACTCTGATCATAGTCAGACCAACATTGCTACGACCCGTATTCGCACCGACAC”, the “relative integration efficiency (log2)” value was determined as 0.0651 ± 0.0083.

Regarding “ACATTTGTTGATACAACCATAAAATGATAATTACACCCATAAATTGATAATTATCACAGGCATAAATTGATATTGCCTCTGATCATAGTCAGACCAACATTGCTACGACCCGTATTCGCACCGACAC”, the “relative integration efficiency (log2)” value was -0.0803 ± 0.09.

In the case of “ACATTTGTTGATACAACCATAAAATGATAATTACACCCATACCGGGATAATTATCACACCCATAAATTGATATTGCCTCTGATCATAGTCAGACCAACATTGCTACGACCCGTATTCGCACCGACAC”, the “relative integration efficiency (log2)” value was -2.211 ± 0.0089.

Consider “ACATTTGTTGATATGTTGACAACCATAAAATGATAATTACACCCATAAATTGATAATTATCACACCCATAAATTGATATTGCCTCTGATCATAGTCAGACCAACATTGCTACGACCCGTATTCGCAC”, for which the “relative integration efficiency (log2)” value is -6.69 ± 0.15.

Take “ACATTTGTTGATACAACCATACCCGTCGCCGGCACAAACGCCCGGTCGCCGGCGACACAAACGCCCGGTCGCGGTAAGAGGATCATAGTCAGACCAACATTGCTACGACCCGTATTCGCACCGACAC”: the “relative integration efficiency (log2)” value is -6.48 ± 0.07.

In the case of “ACATTTGTTGAGCCAACCATAAAATGATAATTACACCCATAAATTGATAATTATCACACCCATAAATTGATATTGCCTCTGATCATAGTCAGACCAACATTGCTACGACCCGTATTCGCACCGACAC”, the “relative integration efficiency (log2)” value was -0.297 ± 0.0032.

As to “ACATTTGTTGATACAACCATAAGTTGATATTTTCAACCATAAAGTGATATTTATCACACCCATAAATTGATATTGCCTCTGATCATAGTCAGACCAACATTGCTACGACCCGTATTCGCACCGACAC”, the “relative integration efficiency (log2)” value was -0.032 ± 0.064.

For “ACATTTGTTGATACAACCATAAAATGATAATTAGAAACCATACGCTGAAATAATCACACCCATAAATTGATATTGCCTCTGATCATAGTCAGACCAACATTGCTACGACCCGTATTCGCACCGACAC”, the “relative integration efficiency (log2)” value is -3.5 ± 0.081.

“ACATTTGTTGATACAACCATAAAATGATAATATCACCCATAAATTGATAATATTCACACCCATAAATTGATATTCGCTCTGATCATAGTCAGACCAACATTGCTACGACCCGTATTCGCACCGACAC”: the “relative integration efficiency (log2)” value was -0.471 ± 0.0068.

Turning to “ACATTTGATGATACAACCATATAATGATAATAACACCCATAAAATGATAATTATCACACCCAATTTAACTATAACGCTCTGATCATAGTCAGACCAACATTGCTACGACCCGTATTCGCACCGACAC”, the “relative integration efficiency (log2)” value was -1.61 ± 0.26.

For “ACATTTGTTGATACACCCATAAATTGATAATTACAACCATATATTGATATCTCTCAGTGGGTATTTAACTATAACGCTCTGATCATAGTCAGACCAACATTGCTACGACCCGTATTCGCACCGACAC”, the “relative integration efficiency (log2)” value is -1.17 ± 0.28.

On to “ACATTTGTTGATACAACCATAAAATCATCATTACACCCATAAATTGATAATTATCACACCCCATTTAACTATAACGCTCTGATCATAGTCAGACCAACATTGCTACGACCCGTATTCGCACCGACAC”, for which the “relative integration efficiency (log2)” value is -3.39 ± 0.35.

As for “ACATTTGTTGATACACCCATAAATTGATAATTACAACCATAAAATGATAATTATCACAACCATAAAGTGATATTTACTCTGATCATAGTCAGACCAACATTGCTACGACCCGTATTCGCACCGACAC”, the “relative integration efficiency (log2)” value is -0.736 ± 0.32.

“ACATTTGTTGATACAACCATAAAGTGATATTTACAACCATATATTGATATCTCTCAGTGGGTATTTAACTATAACGCTCTGATCATAGTCAGACCAACATTGCTACGACCCGTATTCGCACCGACAC”: the “relative integration efficiency (log2)” value was -1.32 ± 0.41.

Consider “ACATTTGTTGATACAACCATAAGTTGATATTTTCAACCATAAGTTGATATTTTTCACACCCATAAATTGATAATTACTCTGATCATAGTCAGACCAACATTGCTACGACCCGTATTCGCACCGACAC”, for which the “relative integration efficiency (log2)” value was 0.0466 ± 0.027.

“ACATTTGTTGATACACCCATAAATTGATAATTACAACCATAAAGTGATATTTATCACAACCATAAAGTGATATTTACTCTGATCATAGTCAGACCAACATTGCTACGACCCGTATTCGCACCGACAC”: the “relative integration efficiency (log2)” value was -0.483 ± 0.29.

As for “ACATTGGTGGATACAACCATAAAATGATAATTACACCCATAAATTGATCATTATCACACCCAATTTAACTATAACGCTCTGATCATAGTCAGACCAACATTGCTACGACCCGTATTCGCACCGACAC”, the “relative integration efficiency (log2)” value was -6.97 ± 0.42.

In the case of “ACATTTGTTGATACAACCATAAAATGATAATTAATAATTATTTATAATCAGCAACTTAACCACAAAACACCCATAAATTGATAATTAACAAAAGTGGGTATTTAACTATAACGTGTGAATCGAGTAT”, the “relative integration efficiency (log2)” value is -3.472 ± 0.019.

“ACATTTGTTGATACAACCATAAAATGATAATTACACCCATAAATTGATAATTATCACACCCATAAATTGATATTGCCTCAACCATAAAATGATAATTACTGATCATAGTCAGACCAAGCACCGACAC”: the “relative integration efficiency (log2)” value was -0.275 ± 0.21.

As for “ACATTTGTTGATACAACCATAAAATGATAATTACACCCATAAATTGATAATTCGACCACCCATAAATTGATATTGCCTCTGATCATAGTCAGACCAACATTGCTACGACCCGTATTCGCACCGACAC”, the “relative integration efficiency (log2)” value was -0.541 ± 0.14.

As for “ACATTTGTAGAAAAAACCATACGTTGATTTTACGAAACCATACGCTGAAATAATCACACCCATAAATTGATATTGCCTCTGATCATAGTCAGACCAACATTGCTACGACCCGTATTCGCACCGACAC”, the “relative integration efficiency (log2)” value is -6.62 ± 0.1.

With “ACATTTGTTGATACAACCATAAAATGATAATTACTCTGATCATAGTCAGACCAACATTGCTACGACCCGTATTCGCACCACCCATAAATTGATAATTATCACACCCATAAATTGATATTGCCGACAC”, the “relative integration efficiency (log2)” value was -2.767 ± 0.019.

Turning to “ACATTTGTTGATACAACCATAAAATCATAATTACACCCATAAATTGATAATTATCCCACCCCATTTAACTATAACGCTCTGATCATAGTCAGACCAACATTGCTACGACCCGTATTCGCACCGACAC”, the “relative integration efficiency (log2)” value was -2.73 ± 0.22.

Source of the values: the supplement of paper PMC10201428.
